In test [1] the target is HLA-A*0201 class I monomer of the iTopia Epitope Discovery System. Description: iTopia affinity assay (ED50).
For test [2] the target is unchanged. Description: iTopia off-rate assay.

In the case of “PRAME425-433 S425F L433Nle analog (peptide)”, the fold reduction of ED50 vs native peptide in test [1] is more than 4 fold. In test [2], the fold increase of halftime of dissociation vs native peptide was 2 fold.

In the case of “PRAME425-433 analog, Nva at P2 (peptide)”, the fold reduction of affinity vs native peptide in test [1] worked out at 3 fold.

Values taken from patent publication US20130195901A1.
